Molecular target: C3 degradation products deposited on the bacterial surface (human) (UniProt P01024)
Assay: flow cytometry on cells; S. aureus JE2Δsbi spa::Tn opsonised in 10% NHS, incubated with polyclonal anti-human C3d antibody or not, washed, then probed with biotin-labelled Sbi-IV and streptavidin-AF488; gMFI

Sequence of UniProt P01024 (P01024 23-1663): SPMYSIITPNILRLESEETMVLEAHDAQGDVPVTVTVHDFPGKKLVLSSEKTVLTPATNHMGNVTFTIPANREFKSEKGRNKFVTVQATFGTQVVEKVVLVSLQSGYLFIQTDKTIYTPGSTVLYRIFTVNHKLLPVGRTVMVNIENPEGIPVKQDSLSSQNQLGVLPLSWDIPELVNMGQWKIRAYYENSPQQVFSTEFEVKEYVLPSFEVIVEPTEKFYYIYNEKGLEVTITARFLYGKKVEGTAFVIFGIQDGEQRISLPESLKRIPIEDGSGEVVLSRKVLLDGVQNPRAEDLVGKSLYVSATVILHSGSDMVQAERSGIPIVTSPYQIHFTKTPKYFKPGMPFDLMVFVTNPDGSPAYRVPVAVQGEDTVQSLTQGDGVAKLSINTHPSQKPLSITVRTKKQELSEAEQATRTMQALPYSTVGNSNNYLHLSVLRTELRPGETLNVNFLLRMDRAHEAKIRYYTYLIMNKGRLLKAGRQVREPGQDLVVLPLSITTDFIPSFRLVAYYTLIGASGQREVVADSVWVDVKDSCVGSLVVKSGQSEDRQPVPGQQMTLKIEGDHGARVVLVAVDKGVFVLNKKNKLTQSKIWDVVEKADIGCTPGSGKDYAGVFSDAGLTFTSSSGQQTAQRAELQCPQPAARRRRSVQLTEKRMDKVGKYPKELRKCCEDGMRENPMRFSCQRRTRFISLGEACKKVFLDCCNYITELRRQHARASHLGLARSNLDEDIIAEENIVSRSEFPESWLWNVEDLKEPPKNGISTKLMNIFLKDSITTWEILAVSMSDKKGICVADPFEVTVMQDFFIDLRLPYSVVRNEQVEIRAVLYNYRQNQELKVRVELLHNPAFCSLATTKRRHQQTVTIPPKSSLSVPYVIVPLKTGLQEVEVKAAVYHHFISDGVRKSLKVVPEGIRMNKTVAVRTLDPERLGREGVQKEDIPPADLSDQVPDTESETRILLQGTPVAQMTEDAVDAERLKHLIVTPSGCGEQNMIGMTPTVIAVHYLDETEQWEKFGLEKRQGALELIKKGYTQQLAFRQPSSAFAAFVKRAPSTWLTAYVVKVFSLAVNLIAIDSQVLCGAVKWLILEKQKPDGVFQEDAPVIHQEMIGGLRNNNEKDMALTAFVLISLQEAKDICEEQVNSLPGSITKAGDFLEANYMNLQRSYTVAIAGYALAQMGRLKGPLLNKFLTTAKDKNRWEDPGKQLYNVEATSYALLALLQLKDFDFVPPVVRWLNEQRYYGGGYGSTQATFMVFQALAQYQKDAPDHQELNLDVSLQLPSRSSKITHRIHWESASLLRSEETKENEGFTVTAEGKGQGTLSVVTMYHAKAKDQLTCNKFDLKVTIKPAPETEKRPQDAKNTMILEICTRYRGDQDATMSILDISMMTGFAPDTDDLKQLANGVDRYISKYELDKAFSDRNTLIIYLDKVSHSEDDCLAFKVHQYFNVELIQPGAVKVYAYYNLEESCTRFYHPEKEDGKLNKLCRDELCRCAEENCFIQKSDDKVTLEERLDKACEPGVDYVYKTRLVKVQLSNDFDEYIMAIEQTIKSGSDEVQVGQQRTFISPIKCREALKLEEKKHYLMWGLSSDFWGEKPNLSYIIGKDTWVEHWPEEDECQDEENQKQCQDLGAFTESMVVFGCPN

## biotin-labelled Sbi-IV (complement C3 binding domain IV of the staphylococcal Sbi protein) (from UniProt Q931F4 198-266) (domain or fragment)
  percent reduction of binding after polyclonal anti-C3d antibodies: 50%

— paper PMC9492775
